B1: Recombinant full-length human MLKL (residue 2-471), wild type (natural protein, UniProt Q8NB16 2-471, looked up)
chain: ENLKHIITLGQVIHKRCEEMKYCKKQCRRLGHRVLGLIKPLEMLQDQGKRSVPSEKLTTAMNRFKAALEEANGEIEKFSNRSNICRFLTASQDKILFKDVNRKLSDVWKELSLLLQVEQRMPVSPISQGASWAQEDQQDADEDRRAFQMLRRDNEKIEASLRRLEINMKEIKETLRQYLPPKCMQEIPQEQIKEIKKEQLSGSPWILLRENEVSTLYKGEYHRAPVAIKVFKKLQAGSIAIVRQTFNKEIKTMKKFESPNILRIFGICIDETVTPPQFSIVMEYCELGTLRELLDREKDLTLGKRMVLVLGAARGLYRLHHSEAPELHGKIRSSNFLVTQGYQVKLAGFELRKTQTSMSLGTTREKTDRVKSTAYLSPQELEDVFYQYDVKSEIYSFGIVLWEIATGDIPFQGCNSEKIRKLVAVKRQQEPLGEDCPSELREIIDECRAHDPSVRPSVDEILKKLSTFSK
notes: Bacmids were made from pFastBac Htb vectors; also called MLKL^WT; hMLKL; source: Sf21 insect cells, purified (glutathione agarose, size-exclusion chromatography)
B2: Recombinant full-length human MLKL (residue 2-471) S83D (natural protein, UniProt Q8NB16 2-471, looked up)
chain: ENLKHIITLGQVIHKRCEEMKYCKKQCRRLGHRVLGLIKPLEMLQDQGKRSVPSEKLTTAMNRFKAALEEANGEIEKFSNRDNICRFLTASQDKILFKDVNRKLSDVWKELSLLLQVEQRMPVSPISQGASWAQEDQQDADEDRRAFQMLRRDNEKIEASLRRLEINMKEIKETLRQYLPPKCMQEIPQEQIKEIKKEQLSGSPWILLRENEVSTLYKGEYHRAPVAIKVFKKLQAGSIAIVRQTFNKEIKTMKKFESPNILRIFGICIDETVTPPQFSIVMEYCELGTLRELLDREKDLTLGKRMVLVLGAARGLYRLHHSEAPELHGKIRSSNFLVTQGYQVKLAGFELRKTQTSMSLGTTREKTDRVKSTAYLSPQELEDVFYQYDVKSEIYSFGIVLWEIATGDIPFQGCNSEKIRKLVAVKRQQEPLGEDCPSELREIIDECRAHDPSVRPSVDEILKKLSTFSK
notes: human MLKL, residues 2-471, with the phosphomimetic S83D; Bacmids were made from pFastBac Htb vectors; also called MLKL^S83D; source: Sf21 insect cells, purified (glutathione agarose, size-exclusion chromatography)
B3: Recombinant full-length human MLKL (residue 2-471) S83D,S132P (natural protein, UniProt Q8NB16 2-471, looked up)
chain: ENLKHIITLGQVIHKRCEEMKYCKKQCRRLGHRVLGLIKPLEMLQDQGKRSVPSEKLTTAMNRFKAALEEANGEIEKFSNRDNICRFLTASQDKILFKDVNRKLSDVWKELSLLLQVEQRMPVSPISQGAPWAQEDQQDADEDRRAFQMLRRDNEKIEASLRRLEINMKEIKETLRQYLPPKCMQEIPQEQIKEIKKEQLSGSPWILLRENEVSTLYKGEYHRAPVAIKVFKKLQAGSIAIVRQTFNKEIKTMKKFESPNILRIFGICIDETVTPPQFSIVMEYCELGTLRELLDREKDLTLGKRMVLVLGAARGLYRLHHSEAPELHGKIRSSNFLVTQGYQVKLAGFELRKTQTSMSLGTTREKTDRVKSTAYLSPQELEDVFYQYDVKSEIYSFGIVLWEIATGDIPFQGCNSEKIRKLVAVKRQQEPLGEDCPSELREIIDECRAHDPSVRPSVDEILKKLSTFSK
notes: human MLKL, residues 2-471, compound mutant of the phosphomimetic S83D and the polymorphism S132P; Bacmids were made from pFastBac Htb vectors; also called MLKL^(S83D, S132P); MLKL^S83D,S132P; source: Sf21 insect cells, purified (glutathione agarose, size-exclusion chromatography)
B4: Recombinant full-length human MLKL (residue 2-471) S132P (natural protein, UniProt Q8NB16 2-471, looked up)
chain: ENLKHIITLGQVIHKRCEEMKYCKKQCRRLGHRVLGLIKPLEMLQDQGKRSVPSEKLTTAMNRFKAALEEANGEIEKFSNRSNICRFLTASQDKILFKDVNRKLSDVWKELSLLLQVEQRMPVSPISQGAPWAQEDQQDADEDRRAFQMLRRDNEKIEASLRRLEINMKEIKETLRQYLPPKCMQEIPQEQIKEIKKEQLSGSPWILLRENEVSTLYKGEYHRAPVAIKVFKKLQAGSIAIVRQTFNKEIKTMKKFESPNILRIFGICIDETVTPPQFSIVMEYCELGTLRELLDREKDLTLGKRMVLVLGAARGLYRLHHSEAPELHGKIRSSNFLVTQGYQVKLAGFELRKTQTSMSLGTTREKTDRVKSTAYLSPQELEDVFYQYDVKSEIYSFGIVLWEIATGDIPFQGCNSEKIRKLVAVKRQQEPLGEDCPSELREIIDECRAHDPSVRPSVDEILKKLSTFSK
notes: human MLKL, residues 2-471, with the natural polymorphism p.Ser132Pro; Bacmids were made from pFastBac Htb vectors; also called MLKL^S132P; p.Ser132Pro; source: Sf21 insect cells, purified (glutathione agarose, size-exclusion chromatography)

As usually defined, the stoichiometry N is the number of molecules, sites or subunits per partner or assembly.

The data set deals with the molecule itself. The experiment in a line: SEC; HiLoad 16/600 Superdex 200 pg column after glutathione agarose; fractions at elution volume 55-63 ml taken as tetramers and pooled.
Take B1: the “stoichiometry N” value was determined as 4. On to B2, for which the “stoichiometry N” value was found to be 4. Next, B3: 4. For B4 the value was 4.
